What all share (experiment): purified protein
Data set [1] relates to CCCC(C)(CCO)SC[C@H](N)C(=O)NCC(=O)O. To be noted: Mn2+-bound enzyme; 0.1 M Tris-HCl (pH 80 [sic]); coupled with ShPatB.
Another data set relates to N[C@@H](CS)C(=O)NCC(=O)O. To be noted: Mn2+-bound enzyme, 50 mM potassium phosphate, 200 mM NaCl, 37 °C.
Substrate in the data set “purified protein”: CCCC(C)(CCO)SC[C@H](N)C(=O)NCC(=O)O
The following applies: 0.1 M Tris-HCl (pH 80 [sic]), coupled with ShPatB.

The Km is the substrate concentration at which the rate is half of its maximum. As a reminder, the kcat is the maximal rate divided by the concentration of active sites. Usually kcat/Km stands for the second-order rate constant that governs catalysis at low substrate concentration. With ShPepV (Staphylococcus hominis), in data set [1], the Michaelis constant (Km) amounted to 1290 ± 40 µM, the kcat came to 3.41 ± 0.07 s⁻¹ and the kcat/Km worked out at 2640 ± 100 M⁻¹ s⁻¹. In the data set on N[C@@H](CS)C(=O)NCC(=O)O, the Km is 2190 ± 220 µM, the turnover number (kcat) stood at 405 ± 23.6 s⁻¹ and the catalytic efficiency (kcat/Km) worked out at 186000 ± 21800 M⁻¹ s⁻¹.

B1: SaPepV (Staphylococcus aureus subsp. aureus USA300) (protein)
chain: MWKEKVQQYEDQIINDLKGLLAIESVRDDAKASEDAPVGPGPRKALDYMYEIAHRDGFTTHDVDHIAGRIEAGKGNDVLGILCHVDVVPAGDGWDSNPFEPVVTEDAIIARGTLDDKGPTIAAYYAIKILEDMNVDWKKRIHMIIGTDEESDWKCTDRYFKTEEMPTLGFAPDAEFPCIHGEKGITTFDLVQNKLTEDQDEPDYELITFKSGERYNMVPDHAEARVLVKENMTDVIQDFEYFLEQNHLQGDSTVDSGILVLTVEGKAVHGMDPSIGVNAGLYLLKFLASLNLDNNAQAFVAFSNRYLFNSDFGEKMGMKFHTDVMGDVTTNIGVITYDNENAGLFGINLRYPEGFEFEKAMDRFANEIQQYGFEVKLGKVQPPHYVDKNDPFVQKLVTAYRNQTNDMTEPYTIGGGTYARNLDKGVAFGAMFSDSEDLMHQKNEYITKKQLFNATSIYLEAIYSLCVEE
Consider B1, for which the Km in the data set “purified protein” (Mn2+-bound enzyme) worked out at 3340 ± 340 µM.

B2: CgTpdA (Corynebacterium glaucum) (protein)
chain: MSNDNAVNSAVTSTDFTFSPNRERIFQELAELISHYSPHSMPEHAATHEEAAKWVTAKLEELGLDVTRHPTVDDADTIIGVKEPVGDAPTVLLYSHYDVVPAQNPAVWTNDPLELDERGGRWYGRGAADCKGNVIMHLAALRMVQENGGTDLGIKVVVEGSEELGGEDGLGKLIDANPELFTADVIFIGDGGNVAVGIPTLTTHLRGGAQLRIKVDTLEGPVHSGGWGGAAPDAAHALIRISDSFFDEHGRTTIEGVDTTAKWEGDPYDRETFRKDARVLDGVQLLGTVDDEPADMVWARPAITVIGFTSVPVKDATNIVNSTAEAQFNLRVPAPQSAAEVAKKVEEQIYARAPWGAKVEVSVTGVNEPFSTDPNGPAVQHFGKCMQDAYGAERLTVVGTGGSIPLTVTLQKHFPDAEFALYGVADPAANIHGIDESVDPTEIEHVAIAEATFLLTYGK
Consider B2, for which, in the data set “purified protein”, the Km came out at 480 ± 30 µM.

The values above are taken from PMC11742315, “Identification of a staphylococcal dipeptidase involved in the production of human body odor” (The Journal of Biological Chemistry, 2024).
